Results taken from article PMC2994726 (PLoS ONE, 2010).
Numbering of substitutions follows the chain as printed.

Columns and labels:
Assay in all cases: radioligand binding; whole-cell heterologous competition on transfected COS-7 cells: 1 nM 3H-Ang II tracer and increasing unlabeled SII Ang II, 3 h at 4°C; pKi calculated from Ang II KD values of experiments run in parallel
Details in all cases: one partner purified
[1] = molecular target: T1, FLAG-tagged rat AT1a receptor D74N truncated after serine 331 (D74N 331Δ) (rat, UniProt P25095 1-331, D74N)
T1 construct: source: COS-7, transiently transfected, on whole cells; not shown: FLAG, N-terminal, kept
T1 sequence (looked up): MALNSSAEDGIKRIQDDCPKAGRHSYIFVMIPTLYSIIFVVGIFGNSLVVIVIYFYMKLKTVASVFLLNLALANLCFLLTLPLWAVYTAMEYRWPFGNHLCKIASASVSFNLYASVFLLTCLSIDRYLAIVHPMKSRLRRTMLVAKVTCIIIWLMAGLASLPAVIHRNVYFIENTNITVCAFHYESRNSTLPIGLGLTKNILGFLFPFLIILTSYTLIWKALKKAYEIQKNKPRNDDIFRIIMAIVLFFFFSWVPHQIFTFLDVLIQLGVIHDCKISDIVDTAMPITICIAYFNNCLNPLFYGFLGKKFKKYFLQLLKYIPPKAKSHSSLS

[2] = molecular target: T2, FLAG-tagged rat AT1a receptor N298A truncated after serine 331 (N298A 331Δ) (rat, UniProt P25095 1-331, N298A)
T2 construct: source: COS-7, transiently transfected, on whole cells; not shown: FLAG, N-terminal, kept
T2 sequence (looked up): T1 sequence (looked up) with N74D, N298A

[3] = molecular target: T3, FLAG-tagged rat AT1a receptor D74N, full length (rat, UniProt P25095 1-359, D74N)
T3 construct: Angiotensin II type 1a receptor (AT1aR), rat, full length; also called D74N (2.50); source: COS-7, transiently transfected, on whole cells; not shown: FLAG, N-terminal, kept
T3 sequence (looked up): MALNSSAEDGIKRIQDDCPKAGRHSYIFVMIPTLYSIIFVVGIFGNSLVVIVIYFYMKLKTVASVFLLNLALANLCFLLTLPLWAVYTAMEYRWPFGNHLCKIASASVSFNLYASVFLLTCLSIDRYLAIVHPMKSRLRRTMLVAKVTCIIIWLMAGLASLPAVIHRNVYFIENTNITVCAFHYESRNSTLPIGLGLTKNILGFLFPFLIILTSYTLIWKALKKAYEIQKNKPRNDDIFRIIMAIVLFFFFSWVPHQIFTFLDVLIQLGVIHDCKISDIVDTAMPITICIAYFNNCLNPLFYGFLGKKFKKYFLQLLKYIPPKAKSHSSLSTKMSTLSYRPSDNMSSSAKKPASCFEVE

[4] = molecular target: T4, FLAG-tagged rat AT1a receptor N298A, full length (rat, UniProt P25095 1-359, N298A)
T4 construct: Angiotensin II type 1a receptor (AT1aR), rat, full length; also called N298A (7.49); source: COS-7, transiently transfected, on whole cells; not shown: FLAG, N-terminal, kept
T4 sequence (looked up): T3 sequence (looked up) with N74D, N298A

GRVIIHPI (sarcosine at position 1 (Sar1)) [Sar1-Ile4-Ile8 (SII) Ang II]
pKi [1]: 6.8
pKi [2]: 6.2
pKi [3]: 6.6
pKi [4]: 6.2
